Source: patent publication US20020032314A1
Ends that are not written are not given here. * marks the point of attachment. 125I = [125I]*

Biological target: NTP receptor on human neutrophils (human)
Assay: saturation curve and Scatchard-like analysis of 125I-NTP-Y binding to human neutrophils

Y(125I)RRPESKATNATLDPR [125I-labeled NTP-Y (human Neutrophil Targeting Peptide synthesized with an N-terminal tyrosine)]
NTP receptors per cell (receptors per cell): 3000
